Measurements taken from the supplement of paper PMC11780869.

System: Bacillus subtilis
Assay: cleaved RNA product abundance (RNA/gDNA barcode ratio) relative to median wild-type variant (ratio to wild type); higher = more accumulation of the downstream cleavage product
How it was run: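 Reporter mRNAs (truncated aprE or tetM) carrying barcoded, mutagenized RNase Y cleavage-site windows were made from oligos with a 9% error rate and integrated into the B. subtilis chromosome. Cultures grew in LB at 37°C from OD600 0.0003 to 0.3. Cleaved RNA was gel-selected, reverse transcribed and barcode-sequenced alongside genomic DNA barcodes, with UMI collapsing. Cleaved product abundance is the RNA:gDNA barcode ratio per variant, scaled to the median wild-type variant.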

[1] = experiment (reporter, strain, medium): exp 8a: truncated aprE reporter, strain BJT201 with 2% xylose (RNase J1 expressed), cleavage site: glnRA (positions -5 to +31 mutated)
[2] = experiment (reporter, strain, medium): exp 2b: truncated aprE reporter, strain BJT200, cleavage site: cggR-gapA (positions -7 to +36 mutated)
[3] = experiment (reporter, strain, medium): exp 4a: truncated aprE reporter, strain BJT201 with 2% xylose (RNase J1 expressed), cleavage site: cggR-gapA (positions -7 to +36 mutated)

| Sequence | cleaved RNA product abundance [1] | cleaved RNA product abundance [2] | cleaved RNA product abundance [3] | other results |
| --- | --- | --- | --- | --- |
| CGACATGTCCCGCTTCTTTCATTAATCCGTTAGCAACTGTTTAGCAATATACATTTACCTTTTAAGAGGAGGAAT | 0.455 |  |  |  |
| CGACATGTCCCGCTTCTTTCATTAATCCGTAATCAACTGTTTTGCTATATACATTTACCTTTTAAGAGGAGGAAT | 0.265 |  |  |  |
| ACAGACGAAGGAGCCGCAAAGAAGTTATTAAGGGATGGATACTCCCTCAATATAAATATCTCTCACTTATTTAAA |  | 0.263 |  |  |
| ACAGACGAAGGAGCCGCAAAGAAGGTATTAAGTGATGAATAATCCCTCAATATAAATATCTCTCACTTATTTAAA |  |  | 0.104 |  |
| ACAGACGAAGGAGCCGCAAAGAAGTTATTAAGGGATTAATAATCCCTCCATATAAATATCTCTCACTTATTTAAA |  |  | 0.197 |  |
| ACAGACGAAGGAGCCGCAAAGAAGTTATTAAGGGATGATTAATCACTCAATATAAATATCTCTCACTTATTTAAA |  | 0.152 |  |  |
| ACAGACGAAGGAGCCGCAAAGAAGTTAATAAGGGATAAATAATCCCTCAATATAAATATCTCTCACTTATTTAAA |  | 0.253 | 0.382 |  |
| ACAGACGAAGGAGCCGCAAAGAAGTTATTAATGGATGAATAATCCCTCAATAGAAATATCTCTCACTTATTTAAA |  |  | 0.0769 |  |
| ACAGACGAAGGAGCCGCAAAGAAGTTATTAACGGATGAACAATCCCTCAATATAAATATCTCTCACTTATTTAAA |  | 0.0917 |  |  |
| ACAGACGAAGGAGCCGCATAGAAGTTATTAAGGGATGAATAAACCCTCAATATAAATATCTCTCACTTATTTAAA |  | 0.448 | 0.471 |  |
| ACAGACGAAGGAGCCGCAAAGAAGTTATTAAGGGTTGAATAATCCCTCAATATAAATCTCTCTCACTTATTTAAA |  |  | 0.173 |  |
| ACAGACGAAGGAGCCGCAAAGAAGTTATTAAGGGATGAATAGTCCCTGAATATAAATATCTCTCACTTATTTAAA |  |  | 0.334 |  |
| ACAGACGAAGGAGCCGCAAAGAAGTTATTAAGGGATGAATAATCCCTCAATATGAATATCTCTCACTTATTTAAA |  | 0.153 | 0.102 | cleaved RNA product abundance (experiment (reporter, strain, medium): exp 6: tetM reporter, strain 168, cleavage site: cggR-gapA (positions -7 to +36 mutated)): 0.0685 |
| ACAGACGAAGGAGCCGCAAAGAAGTTATTAAGGTAGGAATAATCCCTCAATATAAATATCTCTCACTTATTTAAA |  | 0.145 | 0.159 |  |
| ACAGACGAAGGAGCCGCAAAGAAGTTATGAAGGGATGCATAATCCCTCAATATAAATATCTCTCACTTATTTAAA |  |  | 0.542 |  |
| ACAGACGAAGGAGCCGCAAAGAAGTTATTAAGGGTTGAATAAGCCCTCAATATAAATATCTCTCACTTATTTAAA |  |  | 0.608 |  |
| ACAGACGAAGGAGCCGCAAAGAAGTTACTAAGGGATGAATTATCCCTCAATATAAATATCTCTCACTTATTTAAA |  | 0.199 | 0.25 |  |
| CGACATGTCCCGCTTCTTTCATTAATCCGTTAGCAAATGTTATGCTATATACATTTACCTTTTAAGAGGAGGAAT | 0.766 |  |  |  |
| ACAGACGAAGGAGCCGCAAATAAGTTATCAAGGGATGAATAATCCCTCAATATAAATATCTCTCACTTATTTAAA |  |  | 0.278 |  |
| CGACATGTCCCGCTTCTTTCATTAATCCGTTAGCAACTGTTTTGTTATATACATTTACCTTTTAAGAGGAGGAAT | 0.453 |  |  |  |
| CGACATGTCCCGCTTCTTTCATTATTCCGTTAGCAACTGTTTTGCTAAATACATTTACCTTTTAAGAGGAGGAAT | 0.93 |  |  |  |

| Sequence | cleaved RNA product abundance [1] | cleaved RNA product abundance [2] | cleaved RNA product abundance [3] | other results |
| --- | --- | --- | --- | --- |
| ACAGACGAAGGAGCCGCAAAGAAGTTATTAAGGGATGAATAATCCCTCATTAAAAATATCTCTCACTTATTTAAA |  | 0.116 |  |  |
| CGACATGTCCCGCTTCTTTCATTAATCCCTTAGCAACTGTTTTGCTGTATACATTTACCTTTTAAGAGGAGGAAT | 0.108 |  |  |  |
| CGACATGTCCCGCTTCTTTCATTAATGCGTTAGCAACTGTTTTTCTATATACATTTACCTTTTAAGAGGAGGAAT | 0.479 |  |  |  |
| ACAGACGAAGGAGCCGCAAAGAAGTTATTAAGGGAAGAATAATCCCTCCATATAAATATCTCTCACTTATTTAAA |  |  | 0.202 |  |
| ACAGACGAAGGAGCCGCAAAGAGGTTATTAATGGATGAATAATCCCTCAATATAAATATCTCTCACTTATTTAAA |  | 0.13 | 0.0978 |  |
| ACAGACGAAGGAGCCGCATAGAAGTTATTAAGGGATGAATAATCCCTCAATATAAATTTCTCTCACTTATTTAAA |  |  | 0.644 |  |
| CGACATGTCCCGCTTCTTTCATTAATCCGTTAACAACTGTTTTGCTATATACATTTCCCTTTTAAGAGGAGGAAT | 0.155 |  |  |  |
| ACAGACGAAGGAGCCGCAAAGAAGTTATTAAGGGATGAATACTCCCTCAAGATAAATATCTCTCACTTATTTAAA |  | 0.156 |  |  |
| CGACATGTCCCGCTTCTTTCATTATTCCGTTAACAACTGTTTTGCTATATACATATACCTTTTAAGAGGAGGAAT | 0.239 |  |  |  |
| CGACATGTCCCGCTTCTTTCATTAATACGTTAGCAACTGTTTTACTATATACATTTACCTTTTAAGAGGAGGAAT | 0.547 |  |  |  |
| ACAGACGAAGGAGCCGCAAAGAAGTTATTAAGCGATGAATAATCCGTCAATATAAATATCTCTCACTTATTTAAA |  |  | 0.139 |  |
| CGACATGTCCCGCTTCTTTCATTAATCCGTTAGCAACTGTATTGCTAAATACATTTACCTTTTAAGAGGAGGAAT | 0.438 |  |  |  |
| ACAGACGAAGGAGCCGCAAAGAAGTTACAAAGGGATGAATAATCCCACAATATAAATATCTCTCACTTATTTAAA |  |  | 0.157 |  |
| ACAGACGAAGGAGCCGCAAAGAAGTTATTAAGGGAAGAATAATCCCTCAGTATAAATATCTCTCACTTATTTAAA |  | 0.153 | 0.29 |  |
| ACAGACGAAGGAGCCGCAAAGAAGTTATTAAGGGATGCATAATCCCTCACTATAAATATCTCTCACTTATTTAAA |  |  | 0.233 |  |
| ACAGACGAAGGAGCCGCAAAGAAGTTCTTAAGGGATGAATAATCCCTCAAAATAAATATCTCTCACTTATTTAAA |  |  | 0.182 |  |
| ACAGACGAAGGAGCCGCAAAGAAGTTATTAAGGGACGAATAATCCCTCAGTATAAATATCTCTCACTTATTTAAA |  |  | 0.415 |  |
| ACAGACGAAGGAGCCGCAAAGCAGTTATTAAGGGATGAATAATCCCTCAACATAAATATCTCTCACTTATTTAAA |  |  | 0.118 |  |
| CGACATGTCCCGCTTCTTTCATTAATCCGTTAGCAACTGTATTACTATATACATTTACCTTTTAAGAGGAGGAAT | 0.835 |  |  |  |
| ACAGACGAAGGAGCCGCAAAGATGTTATTAATGGATGAATAATCCCTCAATATAAATATCTCTCACTTATTTAAA |  | 0.131 | 0.135 |  |
| CGACATGTCCCGCTTCTTTCATTAATCCGTTAGCAACTGTTTTGCTATATACATTTATGTTTTAAGAGGAGGAAT | 0.888 |  |  |  |

| Sequence | cleaved RNA product abundance [1] | cleaved RNA product abundance [2] | cleaved RNA product abundance [3] | other results |
| --- | --- | --- | --- | --- |
| CGACATGTCCCGCTTCTTTCATTACTCCGTTAGCAACTGTTTTGCTATATATATTTACCTTTTAAGAGGAGGAAT | 1.44 |  |  |  |
| ACAGACGAAGGAGCCGCAATGAAATTATTAAGGGATGAATAATCCCTCAATATAAATATCTCTCACTTATTTAAA |  | 0.716 | 0.875 |  |
| ACAGACGAAGGAGCCGCAAAGAAGTTATTAAGGGATGAATGATCCATCAATATAAATATCTCTCACTTATTTAAA |  |  | 0.259 |  |
| ACAGACGAAGGAGCCGCAAAGAAGTTATTACGGGATGAATAATCCCTCGATATAAATATCTCTCACTTATTTAAA |  |  | 0.259 |  |
| ACAGACGAAGGAGCCGCAAAGAAGTTATTAATGGATGAATAATCCCTCAATATAAATGTCTCTCACTTATTTAAA |  | 0.107 | 0.194 |  |
| CGACATGTCCCGCTTCTTTCATTAATCCGTTAGCAACTGTTTTGCTATATACTTTTACCTTTTAAGAGGAGGAAT | 0.641 |  |  |  |
| ACAGACGAAGGAGCCGCAAAGAGGTTATTAAAGGATGAATAATCCCTCAATATAAATATCTCTCACTTATTTAAA |  | 0.166 |  |  |
| ACAGACGAAGGAGCCGCAAAGAACTTATTAAGGGATGAATAATCCCTCAATATAAACATCTCTCACTTATTTAAA |  |  | 0.348 |  |
| ACAGACGAAGGAGCCGCAAAGAAGTTATTAAGGAATGAATAATCCCTCAATATAAAGATCTCTCACTTATTTAAA |  |  | 0.0766 |  |
| CGACATGTCCCGCTTCTTTCATTAATCCGTTAGAAACTGTTTTGCTATATACATATACCTTTTAAGAGGAGGAAT | 0.244 |  |  |  |
| ACAGACGAAGGAGCCGCAAAGATGTTATCAAGGGATGAATAATCCCTCAATATAAATATCTCTCACTTATTTAAA |  | 0.239 | 0.328 |  |
| ACAGACGAAGGAGCCGCAAAGAAGTTATTAAGGGATTAATAATCCCTCAATATAAATCTCTCTCACTTATTTAAA |  |  | 0.637 |  |
| CGACATGTCCCGCTTCTTTCATTATTCCGTTAGCAACTGTTTTGCGATATACATTTACCTTTTAAGAGGAGGAAT | 0.52 |  |  |  |
| ACAGACGAAGGAGCCGCAAAGACGTTATTATGGGATGAATAATCCCTCAATATAAATATCTCTCACTTATTTAAA |  |  | 0.284 |  |
| ACAGACGAAGGAGCCGCAAAGAAGTTATTAATGGATGAATAATCCCTCAATATCAATATCTCTCACTTATTTAAA |  |  | 0.0753 |  |
| ACAGACGAAGGAGCCGCAAAGAAGTTATTAAAGGATGAATTATCCCTCAATATAAATATCTCTCACTTATTTAAA |  | 0.14 | 0.149 |  |
| CGACATGTCCCGCTTCTTTCATTACTGCGTTAGCAACTGTTTTGCTATATACATTTACCTTTTAAGAGGAGGAAT | 1.68 |  |  |  |
| ACAGACGAAGGAGCCGCAAAGTAGTTATTAAGCGATGAATAATCCCTCAATATAAATATCTCTCACTTATTTAAA |  | 0.0839 | 0.0692 |  |
| CGACATGTCCCGCTTCTTTCATTAATCTGTTAGCAACTGTTTTGCTATATACATATACCTTTTAAGAGGAGGAAT | 0.829 |  |  |  |
